Source: the RNAGym collection of RNA variant scans (doi:10.7554/elife.90254)

B1: LINE1-mini (parent)
chain: GGCAGAGCUCAACACAGCGUGGCAAAGUGGCUGUGGCUAGACUGCC

Variants of: B1
Assay: self-cleavage, relative activity (ratio to wild type); higher = more cleavage; in vitro, sequencing; the parent is a self-cleaving ribozyme

Row | Variant | self-cleavage
1 | C37A C42A | 0.05
2 | C10G A25G | 0.08
3 | G1U U34G | 0.06
4 | A26U A39U | 2.46
5 | G19C C31G | 1.26
6 | C3U G35A | 0.22
7 | G5U A41C | 0.07
8 | G19A C23G | 0.41
9 | G19A C23U | 1.06
10 | C3U U38C | 0.19
11 | A12C C15G | 0.03
12 | A4G G40U | 0.15
13 | G1C G2C | 0.15
14 | G5C U43C | 0.04
15 | A11G C18A | 0.04
16 | U9A A26U | 0.21
17 | G17C U20A | 0.55
18 | G21U C45A | 0.68
19 | G2A G44U | 0.75
20 | G2C G30A | 0.24
21 | A6C U43A | 0.13
22 | C31U A39U | 0.13
23 | A4C G21C | 0.18
24 | G7U C45A | 0.16

Row | Variant | self-cleavage
25 | A16G C23G | 0.64
26 | G19C A41U | 0.19
27 | C8A U34A | 0.25
28 | C8A U34G | 0.34
29 | G35U A41G | 0.08
30 | C31A U43G | 0.15
31 | G7C C31U | 0.05
32 | C23A G35U | 0.22
33 | A11C G27U | 0.05
34 | G30A U34G | 0.11
35 | A26G G44C | 0.28
36 | G17C U38A | 0.14
37 | G17U U32G | 0.09
38 | G22U C45A | 0.88
39 | A16U G36A | 0.06
40 | C13G U28G | 0.35
41 | G2A A11G | 0.08
42 | A11C C18A | 0.02
43 | A11C C18U | 0.04
44 | G22U G30A | 1.49
45 | G2A G17U | 0.19
46 | G33A G40U | 0.09
47 | A25U C42G | 0.06
48 | G19A G29A | 1.14

Row | Variant | self-cleavage
49 | C15A C31A | 0.05
50 | A16C A25C | 0.04
51 | G21A G29U | 2.19
52 | G5A C15G | 0.05
53 | C15A G40U | 0.06
54 | G2C G29U | 0.19
55 | U38C A39G | 0.06
56 | C8A G17U | 0.27
57 | G36U A41G | 0.15
58 | A11C G44A | 0.06
59 | G5U G21U | 0.1
60 | G22C G27A | 0.75
61 | G29A C42U | 0.42
62 | C8U A11U | 0.03
63 | C23G G35A | 0.14
64 | A39G G44A | 0.16
65 | U20C U34A | 0.12
66 | G21U G22C | 1.71
67 | U9C A39U | 0.05
68 | C3U A26C | 0.35
69 | G35U C46G | 0.09
70 | C18U C31A | 0.08
71 | G30U A41C | 0.06
72 | G33C C46A | 0.03

Row | Variant | self-cleavage
73 | U34A G44U | 0.11
74 | G2C U9A | 0.16
75 | C3A U43A | 0.39
76 | A4U A12U | 0.12
77 | A4C G22U | 0.52
78 | C3G U20G | 0.41
79 | U20A G22C | 0.38
80 | C23G U32A | 0.07
81 | G35A U43A | 0.09
82 | A12G C31A | 0.16
83 | A12G C46U | 0.03
84 | U28G C37A | 0.03
85 | C18U C45G | 0.27
86 | C18A G19A | 1.05
87 | G5C U9C | 0.04
88 | C18G C31U | 0.02
89 | A26U G33C | 0.06
90 | G1C A16G | 0.12
91 | G2U A24G | 0.06
92 | C23A G30C | 2.68
93 | G2U A12G | 0.02
94 | U28C C45G | 0.44
95 | A6G G29C | 0.07
96 | A12G G44U | 0.09

Row | Variant | self-cleavage
97 | U38G A41U | 0.04
98 | A6G C15A | 0.05
99 | A16G C46U | 0.55
100 | G35U C42A | 0.08
101 | C10G A39G | 0.03
102 | A6U A11C | 0.06
103 | U32A G35A | 0.04
104 | C37A U43G | 0.08
105 | G30C G35C | 0.09
106 | U9A C23A | 0.14
107 | C8U A14G | 0.19
108 | A39U C45G | 0.24
109 | C3G G17C | 0.15
110 | G22U C23G | 2.27
111 | G21U A24G | 1.37
112 | C15G G40C | 0.03
113 | A11G A25C | 0.03
114 | C8U C37G | 0.07
115 | G1A G27A | 1.81
116 | G2A C31G | 0.14
117 | U28A U32G | 0.3
118 | U34G A41U | 0.17
119 | C13G C31U | 0.13
120 | C10U C23U | 0.43

Row | Variant | self-cleavage
121 | G17A U20C | 0.12
122 | A6C U28C | 0.36
123 | U28G C42U | 0.31
124 | G17C A41G | 0.27
125 | C10G U32C | 0.03
126 | A26C U34G | 0.32
127 | C45G | 0.39
128 | G1C C31A | 0.02
129 | G1A C31A | 0.12
130 | A16C G21C | 0.22
131 | A16C G21A | 0.14
132 | G2A U43C | 0.13
133 | A26U C42U | 0.08
134 | G17A A24C | 0.06
135 | U9C A26U | 0.11
136 | U34C C45G | 0.11
137 | C13A U32G | 0.08
138 | G7U A26U | 0.34
139 | G22U U38G | 0.04
140 | G22U U38C | 2.12
141 | G2A U34A | 0.18
142 | G2A U34C | 0.19
143 | A16U C31U | 0.03
144 | C8G G30C | 0.1

Row | Variant | self-cleavage
145 | G1C C46A | 0.28
146 | A4G C31A | 0.12
147 | G1C U28G | 0.07
148 | C10A G19A | 0.07
149 | C10G A41U | 0.05
150 | C10G A41G | 0.05
151 | U34A G40U | 0.06
152 | C3U C18G | 0.09
153 | C31U U43G | 0.02
154 | A25C A39G | 0.07
155 | A14C G19C | 0.03
156 | C13G C23G | 0.13
157 | C15G C31A | 0.02
158 | C3G A25U | 0.47
159 | C3G A25C | 0.18
160 | G1A C23A | 0.95
161 | C8G G44A | 0.04
162 | C13U C45U | 0.13
163 | A4U C42U | 0.14
164 | A24U C31A | 0.07
165 | G1C A24U | 0.2
166 | C8G A39C | 0.17
167 | G1C A41G | 0.02
